# Laboratory results from patent US20150004637A1, “SYSTEMS AND METHODS FOR IMAGING AT HIGH SPATIAL AND/OR TEMPORAL PRECISION” (President and Fellows of Harvard College, priority 2011, published 2015).
# Read-outs that look alike come from different tables or passages of the source.
# B1: Archaerhodopsin 3 (protein)
# chain: MDPIALQAGYDLLGDGRPETLWLGIGTLLMLIGTFYFLVRGWGVTDKDAREYYAVTILVPGIASAAYLSMFFGIGLTEVTVGGEMLDIYYARYADWLFTTPLLLLDLALLAKVDRVTIGTLVGVDALMIVTGLIGALSHTAIARYSWWLFSTICMIVVLYFLATSLRSAAKERGPEVASTFNTLTALVLVLWTAYPILWIIGTEGAGVVGLGIETLLFMVLDVTAKVGFGFILLRSRAILGDTEAPEPSAGADVSAAD
# modifications: Halorubrum sodomense
# notes: Microbial rhodopsin from Halorubrum sodomense, light-driven proton pump used as fluorescent voltage indicator; experiments used an Arch-eGFP fusion
# B2: Arch D95N: Archaerhodopsin 3 with aspartic acid 95 mutated to asparagine; non-pumping voltage indicator (protein, UniProt P96787 7-258, looked up, variant D95N)
# Archaerhodopsin-3: QAGYDLLGDGRPETLWLGIGTLLMLIGTFYFLVRGWGVTDKDAREYYAVTILVPGIASAAYLSMFFGIGLTEVTVGGEMLDIYYARYANWLFTTPLLLLDLALLAKVDRVTIGTLVGVDALMIVTGLIGALSHTAIARYSWWLFSTICMIVVLYFLATSLRSAAKERGPEVASTFNTLTALVLVLWTAYPILWIIGTEGAGVVGLGIETLLFMVLDVTAKVGFGFILLRSRAILGDTEAPEPSAGADVSAAD
# What was measured:
# Type in all cases: cell-based
# HEK 293 cells = assay: Arch fluorescence as a function of membrane potential, whole-cell voltage clamp; conditions: for Approx ΔF/F per 100 mV: Table 2, described herein
# Method: Fluorescence of Arch in HEK 293 cells supplemented with about 5 μM all-trans retinal (See Methods 4) was readily imaged in an inverted fluorescence microscope with red illumination (λ=640 nm, about 20 mW, and about I=540 W/cm^2), a high numerical aperture objective (NA), a Cy5 filter set, and an EMCCD camera (See Methods 5, FIG. 3A). […] Cells not expressing Arch were not fluorescent.
# (4) HEK cell culture. HEK-293 cells were grown at 37° C., 5% CO2, in DMEM supplemented with 10% FBS and penicillin-streptomycin. Plasmids were transfected using Lipofectamine and PLUS reagent (Invitrogen) following the manufacturer's instructions, and assayed between 48-72 hours later. The day before recording, cells were re-plated onto glass-bottom dishes (MatTek) at a density of ˜5000 cells/cm^2.
# The concentration of endogenous retinal in the HEK cells was not known, so the cells were supplemented with retinal by diluting stock retinal solutions (40 mM, DMSO) in growth medium to a final concentration of 5 micromolar, and then placing the cells back in the incubator for 1-3 hours. All imaging and electrophysiology were performed in Tyrode buffer (containing, in mM: 125 NaCl, 2 KCl, 3 CaCl2, 1 MgCl2, 10 HEPES, 30 glucose pH 7.3, and adjusted to 305-310 mOsm with sucrose). Only HEK cells having reversal potentials between −10 and −40 mV were included in the analysis.
# (5) Microscopy. Simultaneous fluorescence and whole-cell patch clamp recordings were acquired on a home-built, inverted epifluorescence microscope, operated at room temperature. One goal was to collect fluorescence with high efficiency, while also achieving a large enough field of view to image an entire neuron and its processes. Typically, microscope objectives offer a tradeoff between magnification and light-gathering capacity (numerical aperture). Additionally, the ability to change magnification while maintaining a patch on a single cell was important in some cases. Typically the vibrations associated with switching objectives—particularly water or oil immersion objectives—are incompatible with simultaneous patch clamp. In addition, in some cases, the capability to split the field of view into two wavelength bands, and to change magnification without changing the registration of the two halves of the image was important.
# (6) Electrophysiology. Filamented glass micropipettes (WPI) were pulled to a tip resistance of 3-10 megohm fire polished, and filled with internal solution (containing, in mM: 125 potassium gluconate, 8 NaCl, 0.6 MgCl2, 0.1 CaCl2, 1 EGTA, 10 HEPES, 4 Mg-ATP, 0.4 Na-GTP, pH 7.3; adjusted to 295 mOsm with sucrose). The micropipettes were positioned with a Burleigh PCS 5000 micromanipulator. Whole-cell, voltage clamp recordings were acquired using an AxoPatch 200B amplifier (Molecular Devices), filtered at 2 kHz with the internal Bessel filter, and digitized with a National Instruments PCIE-6323 acquisition board at 10 kHz. […]
# (7) Ramp and step-response of Arch WT and D95N. To measure fluorescence as a function of membrane potential, a triangle wave was applied, with amplitude from −150 mV to +150 mV and period 12 s, with video recording at 100 ms per frame. A pixel weight matrix was calculated according to Eq. S2 (below) and applied to the movie images to generate a fluorescence number for each frame. These fluorescence values were divided by their minimum value (at V=−150 mV). […] Background subtraction from the raw fluorescence would have yielded considerably larger values of delta-F/F.
# HEK cells [1] = assay: Step response of fluorescence to membrane potential steps; conditions: for Approx response time: Table 2, described herein; for τresponse: determined from step-response
# Method: The step response was measured in a similar manner, except that test waveforms consisted of a series of voltage pulses, from −70 mV to +30 mV with duration 300 ms and period 1 s. Cells were subjected to 20 repetitions of the waveform, and the fluorescence response was averaged over all iterations.
# HEK cells [2] = assay: Photocurrents under voltage clamp; conditions: for Photocurrent: HEK cells clamped at V=0, 640 nm, 1800 W/cm^2
# Method: Measurements of photocurrents were performed on HEK cells held in voltage clamp at 0 mV while being exposed to brief (200 ms) pulses of illumination at 640 nm at an intensity of 1800 W/cm^2.
# [3] = steps between −70 mV and +30 mV
Molecule,Approx ΔF/F per 100 mV (HEK 293 cells) [%],"photobleaching (HEK 293 cells; continuous 10-minute exposure, 640 nm, about 540 W/cm^2, HEK 293 cells)",time for 90% of step response (HEK cells [1]) [ms],Approx response time (HEK cells [1]) [ms],τresponse (HEK cells [1]) [ms],Photocurrent (HEK cells [2]),"outward photocurrent induced by imaging laser (HEK cells [2]; HEK cells, 640 nm)",greater sensitivity than wild-type (HEK 293 cells) [%],"increase in fluorescence between −150 mV and +150 mV (HEK 293 cells; whole-cell voltage clamp, no background subtraction)",response time (HEK cells [1]) [ms],response time (HEK cells [1]; listed as Arch 3 D95N) [ms],fast component of step response (HEK cells [1]; [3]) [μs],fraction of step response that is fast (HEK cells [1]; [3]),time constant of slow component of step response (HEK cells [1]; [3]) [ms],"fraction of step response that is fast (HEK cells [1]; steps between −70 mV and +30 mV, listed as ArchD95N) [%]",photocurrent / proton pumping (words) (HEK cells [2]),photocurrent / proton pumping (words) (HEK cells [2]; listed as Arch 3 D95N),photocurrent / proton pumping (words) (HEK cells [2]; listed as D95N)
B1,66,about 17%,< 0.5,<0.5,< 0.5,yes,10-20 pA,–,–,–,–,–,–,–,–,–,–,–
B2,100,–,–,41,41,no,–,50,about 3 fold,41,40,< 500,about 20%,41,20,lacked endogenous proton pumping,lacks photoinduced proton pumping,eliminated the photocurrent
